Measurements from patent publication US20250057776A1.

Biological target: human integrin β5 (human) (UniProt P18084)
Test: cell-based or functional assay

UniProt P18084, sequence (P18084 24-799 limits assumed): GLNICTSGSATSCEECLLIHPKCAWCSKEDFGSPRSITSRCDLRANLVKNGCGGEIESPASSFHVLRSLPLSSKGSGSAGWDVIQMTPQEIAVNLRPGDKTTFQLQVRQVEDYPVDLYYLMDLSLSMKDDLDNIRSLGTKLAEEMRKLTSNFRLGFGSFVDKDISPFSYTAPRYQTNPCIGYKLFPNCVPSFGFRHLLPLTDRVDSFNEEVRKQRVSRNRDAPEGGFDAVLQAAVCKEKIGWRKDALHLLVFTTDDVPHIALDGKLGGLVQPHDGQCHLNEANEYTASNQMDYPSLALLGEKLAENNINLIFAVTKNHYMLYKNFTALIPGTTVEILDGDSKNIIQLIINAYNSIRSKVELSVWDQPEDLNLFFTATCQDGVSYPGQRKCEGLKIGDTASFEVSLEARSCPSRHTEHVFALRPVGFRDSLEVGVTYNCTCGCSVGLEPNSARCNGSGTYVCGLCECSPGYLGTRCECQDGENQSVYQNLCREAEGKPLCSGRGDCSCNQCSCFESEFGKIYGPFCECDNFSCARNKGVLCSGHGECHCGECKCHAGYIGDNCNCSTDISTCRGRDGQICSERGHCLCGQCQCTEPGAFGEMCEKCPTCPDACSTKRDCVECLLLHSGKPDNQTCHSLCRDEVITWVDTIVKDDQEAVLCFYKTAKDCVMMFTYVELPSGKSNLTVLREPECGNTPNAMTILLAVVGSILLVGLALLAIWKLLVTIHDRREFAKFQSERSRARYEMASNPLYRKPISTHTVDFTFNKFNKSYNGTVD

Work on “anti-integrin β5 antibodies (model number D24A5, rabbit monoclonal antibodies #3629, commercially available from Cell Signaling Technology) (antibody)” yielded a Brightness (integration, A.U.) of plate of HPF cells after exosome introduction; integrin β5-introduced exosome + anti-integrin β5 antibodies (6.1 × 10^6 without antibodies) of 5.1e+06 A.U.
